Laboratory results from the supplement of paper PMC9170038.

Tested on: MS2 coat protein
Assay: apparent KD of MS2 coat protein; designed switch direction (-1 OFF switch, 1 ON switch): -1; higher = weaker reporter binding
In short: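 On Illumina chips, designed RNA switches with common flanks were made by stalled E. coli RNA polymerase. Titrations with SNAP-549-labelled MS2 coat protein, doubling from 0.7 or 1.5 nM to 3 µM, were done with no input, with 200 uM small-molecule ligand, or with an oligonucleotide input. Apparent KD is the median per design over clusters, from curve fits of normalised cluster fluorescence.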

[1] = input ligand: microRNA oligo, concentration not stated
[2] = Eterna round: R95, input ligand: microRNA oligo, concentration not stated

| Sequence | apparent KD of MS2 coat protein (input ligand: FMN 200 uM) | apparent KD of MS2 coat protein [1] | apparent KD of MS2 coat protein (input ligand: none) | apparent KD of MS2 coat protein (Eterna round: R95, input ligand: FMN 200 uM) | apparent KD of MS2 coat protein [2] | apparent KD of MS2 coat protein (Eterna round: R95, input ligand: none) |
| --- | --- | --- | --- | --- | --- | --- |
| UACAUGAGGAUCACCCAUGUUUUGUCGUGUAUGGUAUUUAUCUAGGAUAUCAUUUGAUUUAUUUAUGAGAAGGAGAAUAUUAAU [JMF's solution 100] (Eterna round: R96, puzzle: Exclusion NG 3) | 34.3 nM | 28.1 nM | 29.8 nM |  |  |  |
| GUCUACGCAGGAUAUAUCCCUCAGGACAUGAGGAUCACCCAUGUCUCCUUAUGCCUUCCCAUAGAAGGGCGUAGAA [Eternabot (L1) Solution 82] (Eterna round: R97, puzzle: Exclusion 5) | 12.6 nM |  | 13.2 nM |  |  |  |
| UUUAAGGGAAUUAAGAUCACAUGAGGAUCACCCAUGUAUAUAUAGGAUAUCAGCUCGAUUAGAGCUGAGAAGGAUAUAUACAUA [ExNG3/6-A1] (Eterna round: R96, puzzle: Exclusion NG 3) | 126 nM | 79.7 nM | 165 nM |  |  |  |
| AAAAAACAAGGAUAUACAAAAAAAAAAUGUGUUAAAUUUUCACAUGAGGAUCACCCAUGUAGAAGGUGUAAAAA [JR_Exclusion2_Sub005] (puzzle: Exclusion 2) |  |  |  | 46 nM | 49.1 nM | 51.7 nM |
| UCCUUGUUGGAGGAUAUGCAUAGCAUCACGCCUGUAGAAGGCCAAACAUGAGGAUCACCCAUGUGCAUGGGAUG [Eternabot (L1) Solution 77] (Eterna round: R97, puzzle: Exclusion 6) | 244 nM |  | 216 nM |  |  |  |
| GGUACUCAAAGAGUACCAAUACGAACAUGAGGAUCACCCAUGUAGGAUAUGCUACUCAAAGAGUAGCAGAAGGACAUGUACCUU [Far Half Aptamer v6] (Eterna round: R96, puzzle: Exclusion NG 3) | 227 nM | 19.7 nM | 29.5 nM |  |  |  |
| GAUAAGGGAGGAUAUACGGAACGGUUUAUGCUCAGUGAGGCACAUGAGGAUCACCCAUGUAGAAGGCCCGACAG [Gezaerti] (puzzle: Exclusion 2) |  |  |  |  | 25.6 nM |  |
| GCUGCGCGAGGAUAUGCGGUUUGUGCUUUGGCCCAUGGCGUACAUGAGGAUCACCCAUGUAGAAGGCGUGUGGG [Apr-15 SS2-52] (puzzle: Exclusion 2) |  |  |  |  | 12 nM |  |
| CGUUCGCGAGGAUAUGCAUUCGAGUCCACUACGUGUCUGGGACUUGAGGAUCACCCAAGUAGAAGGCGCCUCCC [salish99_ex2_r4_649] (Eterna round: R97, puzzle: Exclusion 2) | 71.3 nM |  | 47.9 nM |  |  |  |
| AAUUUUGGAGGAUAUACAUCCCAGGAUCCAGUAAUUAAGUUACAUGAGGAUCACCCAUGUAGAAGGUCAAGAGU [Eternabot (L1) Solution 75] (Eterna round: R97, puzzle: Exclusion 2) | 53.3 nM |  | 44.4 nM |  |  |  |
| AUACUCGUUGUGAGGAUAUCGUUUUCGUCACGGAUCGAGAAGGCACAUGAGGAUCACCCAUGUUUGACGUGAAU [JR_BMOE4_Sub092] (puzzle: Brourd's mod of Exclusion 4) |  |  |  |  | 15.4 nM |  |
| AUCGUGCAGCAAAGCUGUACGAGUACAUGAGGAUCACCCAUGUAGGAUAUGGUACGCAAAGCGUGCUAGAAGGAUAUGAGAUUU [Mat - Exclusion NG 3 - Mod of JL - D100] (Eterna round: R96, puzzle: Exclusion NG 3) | 55.4 nM | 27.8 nM | 45.2 nM |  |  |  |
| GACGAGUGAGGAUAUGGUGAGUAGUGCCUGAGCGCUGCUCACCAGAAGGCACAUGAGGAUCACCCAUGUAUGUC [Mat - Exclusion 4 - Mod of JL - D11] (puzzle: Exclusion 4) |  |  |  |  | 13.2 nM |  |
| AGUAGUUGUUUCCGUUCUUACAUGAGGAUCACCCAUGUUUCUUGUCGUGCUCGCGAUGCUCGUCAGACUACCAGAUG [salish99_TOv1_r3_059] (Eterna round: R96, puzzle: Sensor v3, turn-off variant 1) | 63 nM | 40.6 nM | 59.1 nM |  |  |  |
| UACACCACAUGAGGAUCAAACAUGAGGAUCACCCAUGUAUAACAAGCUUUUUGCUCGUCUUAUAAAUAUGUGGUGUA [Electric Eye 5 - Jieux - Sensor, turn-off variant 1] (Eterna round: R97, puzzle: Sensor, turn-off variant 1) | 14.2 nM |  | 14.5 nM |  |  |  |
| GAACUGAAGCUUUGCUUUAGUCGUACAUGAGGAUCACCCAUGUAGGAUAUGGUAGGCAAAGCUUACUAGAAGGACAGAGUGAUC [Mat - Exclusion NG 3 - Mod of JL - D69] (Eterna round: R96, puzzle: Exclusion NG 3) | 99.1 nM | 156 nM | 71.3 nM |  |  |  |
| CAGUACUGAGGAUAUACAUGAGGAUCACCCAUGUGCUCCAGCUAGGAAACUAGCAAAAGUAGAAGGCAGUACUG [828 mod 2 m8] (Eterna round: R97, puzzle: Exclusion 3) | 3960 nM |  | 101 nM |  |  |  |
| UACAUGAGGAUCACCCAUGUUUUGUCGUGUAUGGUAUUUAUCUAGGAUAUCAUUUUAUUUAGUUAUGAGAAGGAGAAUAUUAAU [JMF's solution 79] (Eterna round: R96, puzzle: Exclusion NG 3) |  | 36.1 nM |  |  |  |  |
